US20220275088A1

B1: P4-B3 minibody (scFv-Fc) (Fc fusion, part only; not given: Hinge, Fc, domain order, not shown: another chain or arm of the molecule; a dimerising Fc or GST; small tags and cut ends)
VH: QVQLVQSGGGLVQPGRSLRLSCAASGFTFDDYAMHWVRQAPGKGLEWVSGISWNSGSIGYADSVKGRFTVSRDNAKNSLYLQMNSLRAEDTAVYYCASDYGDKYYYYGMDVWGKGTTVTVSS
VL: QPGLTQPPSASGTPGQRVTISCSGSSSNIGSNTVNWYQQFPGKAPKLLIFNDNQRPSGVPDRFSASKSGTSASLAISGLQSEDEADYYCAAWDGGLNGRGVFGGGTKLTVL
B2: P4-B3 scFv (scFv, part only; not given: Linker, domain order, tag, V domains shown, not shown: another chain or arm of the molecule; small tags and cut ends)
VH: QVQLVQSGGGLVQPGRSLRLSCAASGFTFDDYAMHWVRQAPGKGLEWVSGISWNSGSIGYADSVKGRFTVSRDNAKNSLYLQMNSLRAEDTAVYYCASDYGDKYYYYGMDVWGKGTTVTVSS
VL: QPGLTQPPSASGTPGQRVTISCSGSSSNIGSNTVNWYQQFPGKAPKLLIFNDNQRPSGVPDRFSASKSGTSASLAISGLQSEDEADYYCAAWDGGLNGRGVFGGGTKLTVL

Tests used:
[1] = biological target: human PD-1 on cells (transfected Expi293 cells, PHA-cultured T cells, cells of the Promega PD1-PDL1 bioassay, T cells of the MLR) (human) (UniProt Q15116); test: cell-based or functional assay
human PD-1 on cells (transfected Expi293 cells, PHA-cultured T cells, cells of the Promega PD1-PDL1 bioassay, T cells of the MLR) (human), sequence (Q15116 25-288): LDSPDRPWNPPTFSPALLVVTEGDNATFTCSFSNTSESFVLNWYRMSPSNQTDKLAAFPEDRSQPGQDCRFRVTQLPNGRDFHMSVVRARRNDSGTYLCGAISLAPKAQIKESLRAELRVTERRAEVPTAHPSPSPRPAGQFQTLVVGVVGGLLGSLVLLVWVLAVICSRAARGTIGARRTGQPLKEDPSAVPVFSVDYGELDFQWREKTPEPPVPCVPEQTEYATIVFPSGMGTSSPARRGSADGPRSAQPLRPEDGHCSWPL

[2] = biological target: soluble PD-1 (biotinylated PD-1; expi293 expressed soluble PD1-avi) (human) (UniProt Q15116); test: method not named at the list; Octet (BLI) on biotinylated PD-1 by context
soluble PD-1 (biotinylated PD-1; expi293 expressed soluble PD1-avi) (human), sequence (Q15116 25-170): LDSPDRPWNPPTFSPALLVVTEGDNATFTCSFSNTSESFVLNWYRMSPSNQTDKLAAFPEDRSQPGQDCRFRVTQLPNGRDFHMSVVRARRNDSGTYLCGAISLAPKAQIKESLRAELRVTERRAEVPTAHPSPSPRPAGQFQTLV

[3] = biological target: soluble PD-1 (biotinylated PD-1; expi293 expressed soluble PD1-avi) (human) (UniProt Q15116); test: Octet (BLI)

| Binder | EC50 against Nivo, Promega PD1-PDL1 bioassay (fold of the EC50 of Nivo) [1] | Kd [2] [pM] | Kd [3] [pM] | koff [3] [s⁻¹] | kon [3] [M⁻¹ s⁻¹] |
| --- | --- | --- | --- | --- | --- |
| B1 | 1.75 | 1000 |  |  |  |
| B2 |  |  | 940 | 6.45e-05 | 68500 |
